Measurements taken from patent US20200407424A1 (FRAUNHOFER GESELLSCHAFT ZUR F RDERUNG DER ANGEWANDTEN …, published 2020).
Read-outs that look alike come from different tables or passages of the source. Square brackets hold non-standard residues; d marks the D form. Ends that are not written are not given here. Cit = NC(=O)NCCC[C@H](N)C(=O)O

How the values were obtained:
Test in all cases: in vitro binding assay
[1] = biological target: T1, recombinant MHC class II protein of the HLA DRB1 0404 genotype (human)
T1 construct: construct not described

[2] = biological target: T2, recombinant MHC class II protein of the HLA DRB1 0101 genotype (human)
T2 construct: construct not described

[3] = biological target: T3, recombinant MHC class II protein of the HLA DRB1 0401 genotype (human)
T3 construct: construct not described; also called HLA-DR0401

[4] = biological target: T1, recombinant MHC class II protein of the …; remark: listed apart in the source
[5] = biological target: T4, recombinant MHC class II protein of the HLA DRB1 0405 genotype (human)
T4 construct: construct not described

[6] = biological target: T5, recombinant MHC class II protein of the HLA DRB1 0408 genotype (human)
T5 construct: construct not described

[7] = biological target: T6, recombinant MHC class II protein of the HLA DRB1 1001 genotype (human)
T6 construct: construct not described

[8] = biological target: T4, recombinant MHC class II protein of the …; remark: listed apart in the source
[9] = biological target: T2, recombinant MHC class II protein of the …; remark: listed apart in the source
[10] = biological target: T3, recombinant MHC class II protein of the …; remark: listed apart in the source
[11] = biological target: T1, recombinant MHC class II protein of the …; remark: listed apart in the source
[12] = biological target: T4, recombinant MHC class II protein of the …; remark: listed apart in the source
[13] = biological target: T3, recombinant MHC class II protein of the …; remark: listed apart in the source

Binder | binding result [2] | binding result [3] | binding result [4] | binding result [5] | binding result [6] | binding result [7] | binding result [9] | binding result [10] | binding result [11] | binding result [12] | also measured
GPPGATGFPGAAGRV [type II collagen peptide ref no 224] |  |  |  |  |  |  |  |  |  |  | binding result [1]: binds
RYMGKGVSKAVEHIN [a-enolase peptide ref no 12] | binds | no binding | no binding | binds | binds | binds |  |  |  |  | 
KTIAPALVSKKLNVT [a-enolase peptide ref no 15] | binds | no binding | binds | no binding | binds | no binding |  |  |  |  | 
KSFIKDYPVVSIEDP [a-enolase peptide ref no 57] | binds | binds | binds | binds | binds | binds |  |  |  |  | 
PSGFQGLPGPPGPPG [type II collagen peptide ref no 178] |  |  |  |  |  |  |  |  |  |  | binding result [8]: binds
KEGLELLKTAIGKAG [a-enolase peptide ref no 45] | binds | binds | binds | binds | binds | no binding |  |  |  |  | 
GAPCRSERLAKYNQL [a-enolase peptide ref no 80] | binds | no binding | no binding | binds | binds | no binding |  |  |  |  | 
YRRMFGGPGTASRPS [vimentin peptide ref no 3] |  |  |  |  |  |  | binds | binds | binds | binds | 
MSTRSVSSSSYRRMF [vimentin peptide ref no 1] |  |  |  |  |  |  | binds | binds | binds | no binding | 
YAT[Cit]SSAV[Cit]L[Cit]SSVP [citrullinated vimentin peptide ref no 105] |  |  |  |  |  |  | binds | binds | no binding | no binding | 
GVSKAVEHINKTIAP [a-enolase peptide ref no 13] | binds | no binding | binds | no binding | no binding | no binding |  |  |  |  | 
MSILKIHAREIFDSR [a-enolase peptide ref no 1] | binds | no binding | binds | binds | no binding | binds |  |  |  |  | 
LAGQRGIVGLPGQRG [type II collagen peptide ref no 241] |  |  |  |  |  |  |  |  |  |  | binding result [13]: no binding; binding result [1]: binds; binding result [8]: binds
GDRGETGAVGAPGAP [type II collagen peptide ref no 257] |  |  |  |  |  |  |  |  |  |  | binding result [1]: binds
PGLQGMPGERGAAGI [type II collagen peptide ref no 195] |  |  |  |  |  |  |  |  |  |  | binding result [1]: binds
FKNT[Cit]TNEKVELQEL [citrullinated vimentin peptide ref no 111] |  |  |  |  |  |  | binds | binds | no binding | no binding | 
VEHINKTIAPALVSK [a-enolase peptide ref no 14] | binds | no binding | binds | no binding | binds | no binding |  |  |  |  | 
PGLQGMPGE[Cit]GAAGI [citrullinated type II collagen peptide ref no 386] |  |  |  |  |  |  |  |  |  |  | binding result [13]: binds; binding result [1]: binds
GHRGFTGLQGLPGPP [type II collagen peptide ref no 272] |  |  |  |  |  |  |  |  |  |  | binding result [8]: binds
VMGFPGPKGANGEPG [type II collagen peptide ref no 166] |  |  |  |  |  |  |  |  |  |  | binding result [1]: binds
PQGARGFPGTPGLPG [type II collagen peptide ref no 100] |  |  |  |  |  |  |  |  |  |  | binding result [1]: binds
GIVGLPGQ[Cit]GE[Cit]GFP [citrullinated type II collagen peptide ref no 411] |  |  |  |  |  |  |  |  |  |  | binding result [13]: binds; binding result [1]: binds; binding result [8]: binds

Now from value to binder, other results behind:

binding result [2] | binding result [3] | binding result [4] | binding result [5] | binding result [6] | binding result [7] | binding result [9] | binding result [10] | binding result [11] | binding result [12] | Binder | also measured
 |  |  |  |  |  | no binding | binds | no binding | no binding | GVXLLQDSVDFSLAD (citrulline (Xaa) at 3) [citrullinated vimentin peptide ref no 108] | 
 |  |  |  |  |  | no binding | binds | binds | no binding | VDQLTNDKARVEVER [vimentin peptide ref no 33] | 
 |  |  |  |  |  | no binding | binds | no binding | no binding | RKLLEGEESRISLPL [vimentin peptide ref no 81] | 
 |  |  |  |  |  | no binding | no binding | binds | no binding | THSK[Cit]TLLIKTVET[Cit] [citrullinated vimentin peptide ref no 166] | 
binds | no binding | no binding | binds | no binding | no binding |  |  |  |  | ANFREAMRIGAEVYH [a-enolase peptide ref no 36] | 
 |  |  |  |  |  | no binding | binds | no binding | no binding | DNASLA[Cit]LDLE[Cit]KVE [citrullinated vimentin peptide ref no 133] | 
 |  |  |  |  |  | binds | binds | binds | binds | SAV[Cit]L[Cit]SSVPGV[Cit]LL [citrullinated vimentin peptide ref no 106] | 
binds | binds | binds | binds | binds | no binding |  |  |  |  | KGVPLYRHIADLAGN [a-enolase peptide ref no 26] | 
binds | no binding | binds | no binding | no binding | no binding |  |  |  |  | SERLAKYNQLLRIEE [a-enolase peptide ref no 81] | 
binds | binds | no binding | binds | binds | no binding |  |  |  |  | AEVYHNLKNVIKEKY [a-enolase peptide ref no 38] | 
no binding | binds | no binding | binds | binds | no binding |  |  |  |  | KGVPLY[Cit]HIADLAGN [citrullinated a-enolase peptide ref no 299] | 
 |  |  |  |  |  | binds | binds | binds | no binding | SPGGVYAT[Cit]SSAV[Cit]L [citrullinated vimentin peptide ref no 104] | 
no binding | no binding | no binding | binds | no binding | no binding |  |  |  |  | LLKVNQIGSVTESLQ [a-enolase peptide ref no 69] | 
